This is an account of results in paper PMC11244893 (bioRxiv, 2024).

A word on the stoichiometry N: it is a count of units in the complex or per binding partner.

The data set deals with the molecule itself. Briefly: SEC + other: diffusion NMR.

B1: full-length, wild-type phosphate starvation response like protein-4 (PHL4) (natural protein, Arabidopsis, UniProt Q8GXC2 1-397, looked up)
chain: MIPNDDDDANSMKNYPLNDDDANSMKNYPLNDDDANSMENYPLRSIPTELSHTCSLIPPSLPNPSEAAADMSFNSELNQIMARPCDMLPANGGAVGHNPFLEPGFNCPETTDWIPSPLPHIYFPSGSPNLIMEDGVIDEIHKQSDLPLWYDDLITTDEDPLMSSILGDLLLDTNFNSASKVQQPSMQSQIQQPQAVLQQPSSCVELRPLDRTVSSNSNNNSNSNNAAAAAKGRMRWTPELHEVFVDAVNQLGGSNEATPKGVLKHMKVEGLTIFHVKSHLQKYRTAKYIPVPSEGSPEARLTPLEQITSDDTKRGIDITETLRIQMEHQKKLHEQLESLRTMQLRIEEQGKALLMMIEKQNMGFGGPEQGEKTSAKTPENGSEESESPRPKRPRNEE
Consider B1, for which the “stoichiometry N” value worked out at 4.
